B1: SecA N609 (SecA 1-609) (domain or fragment)
chain: MLIKLLTKVFGSRNDRTLRRMRKVVNIINAMEPEMEKLSDEELKGKTAEFRARLEKGEVLENLIPEAFAVVREASKRVFGMRHFDVQLLGGMVLNERCIAEMRTGEGKTLTATLPAYLNALTGKGVHVVTVNDYLAQRDAENNRPLFEFLGLTVGINLPGMPAPAKREAYAADITYGTNNEYGFDYLRDNMAFSPEERVQRKLHYALVDEVDSILIDEARTPLIISGPAEDSSEMYKRVNKIIPHLIRQEKEDSETFQGEGHFSVDEKSRQVNLTERGLVLIEELLVKEGIMDEGESLYSPANIMLMHHVTAALRAHALFTRDVDYIVKDGEVIIVDEHTGRTMQGRRWSDGLHQAVEAKEGVQIQNENQTLASITFQNYFRLYEKLAGMTGTADTEAFEFSSIYKLDTVVVPTNRPMIRKDLPDLVYMTEAEKIQAIIEDIKERTAKGQPVLVGTISIEKSELVSNELTKAGIKHNVLNAKFHANEAAIVAQAGYPAAVTIATNMAGRGTDIVLGGSWQAEVAALENPTAEQIEKIKADWQVRHDAVLEAGGLHIIGTERHESRRIDNQLRGRSGRQGDAGSSRFYLSMEDALMRIFASDRVSGMMRK
B2: SecA N619 (SecA 1-619) (domain or fragment)
chain: MLIKLLTKVFGSRNDRTLRRMRKVVNIINAMEPEMEKLSDEELKGKTAEFRARLEKGEVLENLIPEAFAVVREASKRVFGMRHFDVQLLGGMVLNERCIAEMRTGEGKTLTATLPAYLNALTGKGVHVVTVNDYLAQRDAENNRPLFEFLGLTVGINLPGMPAPAKREAYAADITYGTNNEYGFDYLRDNMAFSPEERVQRKLHYALVDEVDSILIDEARTPLIISGPAEDSSEMYKRVNKIIPHLIRQEKEDSETFQGEGHFSVDEKSRQVNLTERGLVLIEELLVKEGIMDEGESLYSPANIMLMHHVTAALRAHALFTRDVDYIVKDGEVIIVDEHTGRTMQGRRWSDGLHQAVEAKEGVQIQNENQTLASITFQNYFRLYEKLAGMTGTADTEAFEFSSIYKLDTVVVPTNRPMIRKDLPDLVYMTEAEKIQAIIEDIKERTAKGQPVLVGTISIEKSELVSNELTKAGIKHNVLNAKFHANEAAIVAQAGYPAAVTIATNMAGRGTDIVLGGSWQAEVAALENPTAEQIEKIKADWQVRHDAVLEAGGLHIIGTERHESRRIDNQLRGRSGRQGDAGSSRFYLSMEDALMRIFASDRVSGMMRKLGMKPGEAIE
B3: SecA N649 (SecA 1-649) (domain or fragment)
chain: MLIKLLTKVFGSRNDRTLRRMRKVVNIINAMEPEMEKLSDEELKGKTAEFRARLEKGEVLENLIPEAFAVVREASKRVFGMRHFDVQLLGGMVLNERCIAEMRTGEGKTLTATLPAYLNALTGKGVHVVTVNDYLAQRDAENNRPLFEFLGLTVGINLPGMPAPAKREAYAADITYGTNNEYGFDYLRDNMAFSPEERVQRKLHYALVDEVDSILIDEARTPLIISGPAEDSSEMYKRVNKIIPHLIRQEKEDSETFQGEGHFSVDEKSRQVNLTERGLVLIEELLVKEGIMDEGESLYSPANIMLMHHVTAALRAHALFTRDVDYIVKDGEVIIVDEHTGRTMQGRRWSDGLHQAVEAKEGVQIQNENQTLASITFQNYFRLYEKLAGMTGTADTEAFEFSSIYKLDTVVVPTNRPMIRKDLPDLVYMTEAEKIQAIIEDIKERTAKGQPVLVGTISIEKSELVSNELTKAGIKHNVLNAKFHANEAAIVAQAGYPAAVTIATNMAGRGTDIVLGGSWQAEVAALENPTAEQIEKIKADWQVRHDAVLEAGGLHIIGTERHESRRIDNQLRGRSGRQGDAGSSRFYLSMEDALMRIFASDRVSGMMRKLGMKPGEAIEHPWVTKAIANAQRKVESRNFDIRKQLLEYD
B4: SecA N629* (SecA 1-629, N629D) (domain or fragment)
chain: MLIKLLTKVFGSRNDRTLRRMRKVVNIINAMEPEMEKLSDEELKGKTAEFRARLEKGEVLENLIPEAFAVVREASKRVFGMRHFDVQLLGGMVLNERCIAEMRTGEGKTLTATLPAYLNALTGKGVHVVTVNDYLAQRDAENNRPLFEFLGLTVGINLPGMPAPAKREAYAADITYGTNNEYGFDYLRDNMAFSPEERVQRKLHYALVDEVDSILIDEARTPLIISGPAEDSSEMYKRVNKIIPHLIRQEKEDSETFQGEGHFSVDEKSRQVNLTERGLVLIEELLVKEGIMDEGESLYSPANIMLMHHVTAALRAHALFTRDVDYIVKDGEVIIVDEHTGRTMQGRRWSDGLHQAVEAKEGVQIQNENQTLASITFQNYFRLYEKLAGMTGTADTEAFEFSSIYKLDTVVVPTNRPMIRKDLPDLVYMTEAEKIQAIIEDIKERTAKGQPVLVGTISIEKSELVSNELTKAGIKHNVLNAKFHANEAAIVAQAGYPAAVTIATNMAGRGTDIVLGGSWQAEVAALENPTAEQIEKIKADWQVRHDAVLEAGGLHIIGTERHESRRIDNQLRGRSGRQGDAGSSRFYLSMEDALMRIFASDRVSGMMRKLGMKPGEAIEHPWVTKAIAD
B5: SecA N798* (SecA 1-798, D798R) (domain or fragment)
chain: MLIKLLTKVFGSRNDRTLRRMRKVVNIINAMEPEMEKLSDEELKGKTAEFRARLEKGEVLENLIPEAFAVVREASKRVFGMRHFDVQLLGGMVLNERCIAEMRTGEGKTLTATLPAYLNALTGKGVHVVTVNDYLAQRDAENNRPLFEFLGLTVGINLPGMPAPAKREAYAADITYGTNNEYGFDYLRDNMAFSPEERVQRKLHYALVDEVDSILIDEARTPLIISGPAEDSSEMYKRVNKIIPHLIRQEKEDSETFQGEGHFSVDEKSRQVNLTERGLVLIEELLVKEGIMDEGESLYSPANIMLMHHVTAALRAHALFTRDVDYIVKDGEVIIVDEHTGRTMQGRRWSDGLHQAVEAKEGVQIQNENQTLASITFQNYFRLYEKLAGMTGTADTEAFEFSSIYKLDTVVVPTNRPMIRKDLPDLVYMTEAEKIQAIIEDIKERTAKGQPVLVGTISIEKSELVSNELTKAGIKHNVLNAKFHANEAAIVAQAGYPAAVTIATNMAGRGTDIVLGGSWQAEVAALENPTAEQIEKIKADWQVRHDAVLEAGGLHIIGTERHESRRIDNQLRGRSGRQGDAGSSRFYLSMEDALMRIFASDRVSGMMRKLGMKPGEAIEHPWVTKAIANAQRKVESRNFDIRKQLLEYDDVANDQRRAIYSQRNELLDVSDVSETINSIREDVFKATIDAYIPPQSLEEMWDIPGLQERLKNDFDLDLPIAEWLDKEPELHEETLRERILAQSIEVYQRKEEVVGAEMMRHFEKGVMLQTLDSLWKEHLAAMDYLRQGIHLRGYAQKR
B6: SecA N831 (SecA 1-831) (domain or fragment)
chain: MLIKLLTKVFGSRNDRTLRRMRKVVNIINAMEPEMEKLSDEELKGKTAEFRARLEKGEVLENLIPEAFAVVREASKRVFGMRHFDVQLLGGMVLNERCIAEMRTGEGKTLTATLPAYLNALTGKGVHVVTVNDYLAQRDAENNRPLFEFLGLTVGINLPGMPAPAKREAYAADITYGTNNEYGFDYLRDNMAFSPEERVQRKLHYALVDEVDSILIDEARTPLIISGPAEDSSEMYKRVNKIIPHLIRQEKEDSETFQGEGHFSVDEKSRQVNLTERGLVLIEELLVKEGIMDEGESLYSPANIMLMHHVTAALRAHALFTRDVDYIVKDGEVIIVDEHTGRTMQGRRWSDGLHQAVEAKEGVQIQNENQTLASITFQNYFRLYEKLAGMTGTADTEAFEFSSIYKLDTVVVPTNRPMIRKDLPDLVYMTEAEKIQAIIEDIKERTAKGQPVLVGTISIEKSELVSNELTKAGIKHNVLNAKFHANEAAIVAQAGYPAAVTIATNMAGRGTDIVLGGSWQAEVAALENPTAEQIEKIKADWQVRHDAVLEAGGLHIIGTERHESRRIDNQLRGRSGRQGDAGSSRFYLSMEDALMRIFASDRVSGMMRKLGMKPGEAIEHPWVTKAIANAQRKVESRNFDIRKQLLEYDDVANDQRRAIYSQRNELLDVSDVSETINSIREDVFKATIDAYIPPQSLEEMWDIPGLQERLKNDFDLDLPIAEWLDKEPELHEETLRERILAQSIEVYQRKEEVVGAEMMRHFEKGVMLQTLDSLWKEHLAAMDYLRQGIHLRGYAQKDPKQEYKRESFSMFAAMLESLKYEVISTLSKVQV
B7: SecA N828 (SecA 1-828) (domain or fragment)
chain: MLIKLLTKVFGSRNDRTLRRMRKVVNIINAMEPEMEKLSDEELKGKTAEFRARLEKGEVLENLIPEAFAVVREASKRVFGMRHFDVQLLGGMVLNERCIAEMRTGEGKTLTATLPAYLNALTGKGVHVVTVNDYLAQRDAENNRPLFEFLGLTVGINLPGMPAPAKREAYAADITYGTNNEYGFDYLRDNMAFSPEERVQRKLHYALVDEVDSILIDEARTPLIISGPAEDSSEMYKRVNKIIPHLIRQEKEDSETFQGEGHFSVDEKSRQVNLTERGLVLIEELLVKEGIMDEGESLYSPANIMLMHHVTAALRAHALFTRDVDYIVKDGEVIIVDEHTGRTMQGRRWSDGLHQAVEAKEGVQIQNENQTLASITFQNYFRLYEKLAGMTGTADTEAFEFSSIYKLDTVVVPTNRPMIRKDLPDLVYMTEAEKIQAIIEDIKERTAKGQPVLVGTISIEKSELVSNELTKAGIKHNVLNAKFHANEAAIVAQAGYPAAVTIATNMAGRGTDIVLGGSWQAEVAALENPTAEQIEKIKADWQVRHDAVLEAGGLHIIGTERHESRRIDNQLRGRSGRQGDAGSSRFYLSMEDALMRIFASDRVSGMMRKLGMKPGEAIEHPWVTKAIANAQRKVESRNFDIRKQLLEYDDVANDQRRAIYSQRNELLDVSDVSETINSIREDVFKATIDAYIPPQSLEEMWDIPGLQERLKNDFDLDLPIAEWLDKEPELHEETLRERILAQSIEVYQRKEEVVGAEMMRHFEKGVMLQTLDSLWKEHLAAMDYLRQGIHLRGYAQKDPKQEYKRESFSMFAAMLESLKYEVISTLSK

This assay deals with SecYEG-SecDF•YajC (E. coli) (UniProt P0AGA2).
Regarding “SecA N772 (SecA 1-772) (from UniProt P10408 1-772) (domain or fragment)”, the % pOmpA Translocation, +YEG: in vitro translocation of pOmpA into liposomes with SecYEG-SecDF•YajC (% pOmpA Translocation) stood at 0. In the case of “E. coli SecA (from UniProt P10408 1-901) (natural protein)”, the % pOmpA Translocation, +YEG: in vitro translocation of pOmpA into liposomes with SecYEG-SecDF•YajC (% pOmpA Translocation) came to 97 and the Channel Activity, μA, +YEG: ion current in Xenopus oocytes injected with SecA, liposomes, SecYEG-SecDF•YajC, pOmpA, ATP-Mg turned out to be 7 μA. The molecule B1 showed a % pOmpA Translocation, +YEG: in vitro translocation of pOmpA into liposomes with SecYEG-SecDF•YajC (% pOmpA Translocation) of 0 and a Channel Activity, μA, +YEG: ion current in Xenopus oocytes injected with the fragment, liposomes, SecYEG-SecDF•YajC, pOmpA, ATP-Mg of 0 μA. The matching figures for B2: 0 and 0 μA. Molecule B3 showed a % pOmpA Translocation, +YEG: in vitro translocation of pOmpA into liposomes with SecYEG-SecDF•YajC (% pOmpA Translocation) of 0 and a Channel Activity, μA, +YEG: ion current in Xenopus oocytes injected with the fragment, liposomes, SecYEG-SecDF•YajC, pOmpA, ATP-Mg of 5.8 μA. Molecule B4 showed a Channel Activity, μA, +YEG: ion current in Xenopus oocytes injected with the fragment, liposomes, SecYEG-SecDF•YajC, pOmpA, ATP-Mg of 0.4 μA. Take B5: the % pOmpA Translocation, +YEG: in vitro translocation of pOmpA into liposomes with SecYEG-SecDF•YajC (% pOmpA Translocation) came to 0. Take B6: the % pOmpA Translocation, +YEG: in vitro translocation of pOmpA into liposomes with SecYEG-SecDF•YajC (% pOmpA Translocation) amounted to 71.2 and the Channel Activity, μA, +YEG: ion current in Xenopus oocytes injected with the fragment, liposomes, SecYEG-SecDF•YajC, pOmpA, ATP-Mg was 5.8 μA.

In turn, B7 had a % pOmpA Translocation, +YEG: in vitro translocation of pOmpA into liposomes with SecYEG-SecDF•YajC (% pOmpA Translocation) of 7.6.

The record behind these values is publication PMC5456053.
